Reference: patent publication US20210388084A1 (JJP BIOLOGICS SP Z O O, published 2021)

What was measured:
[1] = biological target: T1, chimeric human/cynomolgus monkey CD89-II (human/cynomolgus monkey chimera, UniProt P24071 22-287); test: FACS, transiently transfected HEK293F; - = no binding
T1 construct: also called ΔIle47-Ile71 human EC1-CD89; II (47-71)
T1 chain: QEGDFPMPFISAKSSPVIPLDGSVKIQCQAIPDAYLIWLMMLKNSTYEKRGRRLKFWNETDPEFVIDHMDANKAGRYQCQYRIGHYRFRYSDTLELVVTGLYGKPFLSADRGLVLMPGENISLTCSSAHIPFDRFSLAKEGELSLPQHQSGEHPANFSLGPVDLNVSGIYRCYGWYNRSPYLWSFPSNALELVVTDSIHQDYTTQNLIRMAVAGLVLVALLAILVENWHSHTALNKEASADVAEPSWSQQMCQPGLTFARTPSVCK
Method: (§1) After 48 hours, the binding of CD89/IgA blocking mouse anti-human CD89 antibodies to aforementioned chimeric human CD89/cynomolgus monkey CD89 constructs on transfected cells was analyzed by FACS analysis. To this end, transient transfected HEK293F cells were put at 10×10⁶ cells/mL in ice-chilled phosphate-buffered saline containing 0.1% BSA (Sigma)/0.05% NaN₃ (PBS/BSA/NaN₃) supplemented with 50 μg/mL human IgGs (blocking Fcγ receptors; Sigma) for 10 minutes at 4° C. Then, 10 μL/tube (ie, 0.1×10⁶ cells) of these cells were incubated with or without 100 μL purified mouse anti-human CD89 antibody at 10 μg/mL (in PBS/BSA/NaN₃) for 30 minutes at 4° C. […] After extensive washing in PBS/BSA/NaN₃, cells were subsequently incubated with 1:200 diluted PE-conjugated goat anti-mouse IgG Fey-specific antibodies (Jackson ImmunoResearch) for 30 minutes at 4° C. After extensive washing in PBS/BSA/NaN₃, cells were fixed in 2% formaldehyde in PBS/BSA/NaN₃ for 30 minutes at 4° C.

[2] = biological target: T2, chimeric human/cynomolgus monkey CD89-III (human/cynomolgus monkey chimera, UniProt P24071 22-287); test: FACS, transiently transfected HEK293F, 10 ug/mL; ++ strong, + intermediate, -/+ weak
T2 construct: also called ΔGly72-Gly96 human EC1-CD89; III (72-96)
T2 chain: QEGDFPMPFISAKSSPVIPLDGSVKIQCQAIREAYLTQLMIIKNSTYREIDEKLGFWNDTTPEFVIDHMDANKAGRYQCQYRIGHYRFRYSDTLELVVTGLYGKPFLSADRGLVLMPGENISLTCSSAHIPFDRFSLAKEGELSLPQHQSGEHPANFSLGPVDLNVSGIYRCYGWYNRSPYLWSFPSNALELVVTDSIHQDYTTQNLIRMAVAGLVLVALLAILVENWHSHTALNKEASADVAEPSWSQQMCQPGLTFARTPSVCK

[3] = biological target: T3, chimeric human/cynomolgus monkey CD89-hotspots (human/cynomolgus monkey chimera, UniProt P24071 22-287); test: as above
T3 construct: also called ΔThr58, Gln59; ΔArg73, Arg74, Lys76
T3 chain: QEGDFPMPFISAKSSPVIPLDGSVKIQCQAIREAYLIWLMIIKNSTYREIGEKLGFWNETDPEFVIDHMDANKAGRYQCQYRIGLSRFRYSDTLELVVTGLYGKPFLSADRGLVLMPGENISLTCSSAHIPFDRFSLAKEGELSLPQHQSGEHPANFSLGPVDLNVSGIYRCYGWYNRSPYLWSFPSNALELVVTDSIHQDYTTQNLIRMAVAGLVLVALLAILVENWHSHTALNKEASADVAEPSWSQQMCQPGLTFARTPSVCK

[4] = biological target: T4, membrane-bound full-length human CD89 (human, UniProt P24071 22-287); test: FACS, HEK293F-huCD89, 4C +NaN3, IgA then Ab 10 ug/mL; pre-bound non-aggr serum IgA
T4 construct: on stably or transiently transfected HEK293F cells; also called FcalphaRI; huCD89
Method: After this (ie, without washing), 50 μL purified mouse anti-human CD89 antibody at 20 μg/mL (in PBS/BSA/NaN₃) was added to these cells, and incubated for another 30 minutes at 4° C. […] After extensive washing in PBS/BSA/NaN₃, 1:200 diluted PE-conjugated streptavidin (Jackson ImmunoResearch) was added, and incubated for 30 minutes at 4° C. After extensive washing in PBS/BSA/NaN₃, cells were fixed in 2% formaldehyde in PBS/BSA/NaN₃ for 30 minutes at 4° C.

[5] = biological target: T4, membrane-bound full-length human CD89; test: FACS, HEK293F-huCD89, 4C +NaN3, IgA then Ab 10 ug/mL; pre-bound heat-aggr serum IgA
Method: After extensive washing in PBS/BSA/NaN₃, 1:200 diluted PE-conjugated streptavidin (Jackson ImmunoResearch) was added, and incubated for 30 minutes at 4° C. After extensive washing in PBS/BSA/NaN₃, cells were fixed in 2% formaldehyde in PBS/BSA/NaN₃ for 30 minutes at 4° C.

[6] = biological target: T2, chimeric human/cynomolgus monkey …; test: FACS, transiently transfected HEK293F; - = no binding
Method: as §1

[7] = biological target: T3, chimeric human/cynomolgus monkey …; test: as above
Method: as §1

[8] = biological target: T1, chimeric human/cynomolgus monkey CD89-II; test: FACS, transiently transfected HEK293F, 10 ug/mL; ++ strong, + intermediate, -/+ weak
[9] = biological target: T5, membrane full-length bovine Fcγ2R (bovine); test: FACS, transiently transfected HEK293F
T5 chain: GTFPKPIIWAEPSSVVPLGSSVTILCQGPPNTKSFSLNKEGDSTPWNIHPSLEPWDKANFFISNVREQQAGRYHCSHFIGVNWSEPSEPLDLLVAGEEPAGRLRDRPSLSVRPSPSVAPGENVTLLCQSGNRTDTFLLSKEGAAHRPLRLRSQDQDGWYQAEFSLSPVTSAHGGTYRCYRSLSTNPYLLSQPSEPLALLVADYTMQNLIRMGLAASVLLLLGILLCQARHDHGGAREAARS

[10] = biological target: T6, chimeric human EC1-CD89/bovine EC2-Fcγ2R (bovine TM & bovine IC) (human/bovine chimera); test: FACS, transiently transfected HEK293F, 10 ug/mL
T6 construct: also called human EC1-CD89 (version with bovine transmembrane-intracellular region)
Method: (§2) After 48 hours and/or 72 hours, the binding of CD89/IgA blocking mouse anti-human CD89 antibodies to aforementioned chimeric human/bovine receptors on transfected cells was analyzed by FACS analysis. To this end, transient transfected HEK293F cells were put at 10×10⁶ cells/mL in ice-chilled phosphate-buffered saline containing 0.1% BSA (Sigma)/0.05% NaN₃ (PBS/BSA/NaN₃) supplemented with 50 μg/mL human IgGs (blocking Fcγ receptors; Sigma) for 10 minutes at 4° C. Then, 10 μL/tube (ie, 0.1×10⁶ cells) of these cells were incubated with or without 100 μL purified mouse anti-human CD89 antibody at 10 μg/mL (in PBS/BSA/NaN₃) for 30 minutes at 4° C. […] After extensive washing in PBS/BSA/NaN₃, cells were subsequently incubated with 1:200 diluted PE-conjugated goat anti-mouse IgG Fey-specific antibodies (Jackson ImmunoResearch) for 30 minutes at 4° C. After extensive washing in PBS/BSA/NaN₃, cells were fixed in 2% formaldehyde in PBS/BSA/NaN₃ for 30 minutes at 4° C.

[11] = biological target: T7, chimeric human EC1-CD89/bovine EC2-Fcγ2R (human TM & human IC) (human/bovine chimera); test: FACS, transiently transfected HEK293F, 10 ug/mL
T7 construct: also called human EC1-CD89 (version with human transmembrane-intracellular region)
Method: as §2

Binder	binding result [1]	binding result [2]	binding result [3]	percent IgA binding [4] [%]	percent IgA binding [5] [%]	binding result [6]	binding result [7]	binding result [8]	binding result [9]	binding result [10]	binding result [11]
mouse anti-human CD89-specific antibody 20B4 (antibody, mouse IgG1, V domains shown) VH: QVQLKESGPGLVAPSQSLSITCTVSGFSLTSYGVHWVRQPPGKGLEWLGIIWAGGSTSYNSALMSRLSISKDNSKSQVFLKMNSLQTDDTAMYYCARDHYDLFAYWGQGTLVTVSA VL: DILMTQSPSSMSVSLGDTVSITCHASQDISRNIGWLQQKPGKSFKGLIYHGTNLEDGVPSRFSGSGSGADYSLTISSLESEDFADYYCVQYAQFPRTFGGGTKLEIK	no binding (tested: 10 µg/mL)	binds	binds	0 to 25	26 to 50						
mouse anti-human CD89-specific antibody 8F3 (antibody, mouse IgG1, V domains shown) VH: EVQLVESGGGLVKPGGSLKLSCAASGFTFSNYGMSWVRQTPDKRLEWVATMHSGGTYTYYPDNVKGRFTISRDNAKNNLYLQMSSLRSEDTAMYYCARETGLYDGLFDFWGQGTTLTVSS VL: DVQITQSPSYLAASPGETITINCRASKTISKYLAWYQEKPGKTNMLLIYSGSTLQSGVPSRFSGSGSGTDFTLTISSLEPEDLAMYYCQQHDEYPWTFGGGTKLEIK						no binding (tested: 10 µg/mL)	no binding (tested: 10 µg/mL)	binds			
mouse anti-human CD89-specific antibody 10E7 (antibody, mouse IgG1, V domains shown) VH: EVQLVESGGGLVQPGGSLKLSCAASGLTFSSYGMSWVRQTPDKRLELVATINGNGDITYYPDSVKGRFTISRDNAKNTLYLQMSSLKSEDTAMYYCARDYDYDYAMDYWGQGTSVTVSS VL: DIQMTQSTSSLSASLGDSVTISCRASQDIINYLNWYQQKPDGTVKLLIYYTSRLHSGVPSRFSGSGSGTEYSLTVSNLEKEDIATYFCQQGKTLPYTFGGGTKLEIK							no binding (tested: 10 µg/mL)	binds	no binding (tested: 10 µg/mL)	binds	binds
